Drawing on publication PMC6377406, this text covers fold of VCP pulled down against OMM-PINK1-GFP for one substance.

The assay has as its target ΔN-PINK1-GFP (UniProt Q9BXM7). Description: co-IP; GFP IP (μMACS Epitope Tag Protein Isolation kit) of lysates of transfected HEK293 cells; immunoblot. On the technique in general: A western blot detects proteins with antibodies after separation by electrophoresis.
Sequence of UniProt Q9BXM7 (Q9BXM7 78-581, stated change not applied): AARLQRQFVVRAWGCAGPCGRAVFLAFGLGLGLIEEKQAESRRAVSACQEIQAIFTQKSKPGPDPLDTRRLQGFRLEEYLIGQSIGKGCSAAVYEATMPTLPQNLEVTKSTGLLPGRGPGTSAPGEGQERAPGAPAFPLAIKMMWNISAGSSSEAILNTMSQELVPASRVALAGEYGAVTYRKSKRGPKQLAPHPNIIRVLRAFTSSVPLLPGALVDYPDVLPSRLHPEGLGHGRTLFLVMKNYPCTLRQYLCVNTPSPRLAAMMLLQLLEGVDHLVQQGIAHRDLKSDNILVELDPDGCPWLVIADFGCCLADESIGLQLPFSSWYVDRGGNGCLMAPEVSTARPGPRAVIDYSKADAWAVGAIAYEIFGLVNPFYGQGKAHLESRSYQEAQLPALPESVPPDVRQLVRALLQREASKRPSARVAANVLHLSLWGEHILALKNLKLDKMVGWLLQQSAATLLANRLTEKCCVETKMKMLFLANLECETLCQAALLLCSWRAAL

On to “valosin-containing protein (VCP), endogenous in HEK293 cells (from UniProt P55072 1-806) (natural protein)”, for which the fold of VCP pulled down against OMM-PINK1-GFP was found to be 4 fold.
